Source: the supplement of paper PMC9112550, “Optimization of the antimicrobial peptide Bac7 by deep mutational scanning” (BMC Biology, 2022)

Tested on: Escherichia coli TOP10
Assay: shrunken log2 fold change of peptide-encoding DNA abundance (4.5 h post-induction vs induction); higher = less antimicrobial activity (less host growth inhibition)
Conditions: time post-induction: 4.5 h; library: site-saturation at positions 5, 18, 19, 20
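Also: peptides expressed intracellularly from a pBAD plasmid library in pooled LB shake-flask culture, induced with 0.3% L-arabinose, DNA abundance read by NGS, three biological replicates, DESeq2 with apeglm shrinkage.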

Sequence	shrunken log2 fold change
RRIRQRPPRLPRPRPRPRQNPRP	0.402
RRIRQRPPRLPRPRPRPRQWPRP	0.254
RRIRQRPPRLPRPRPRPRSWPRP	0.681
RRIRQRPPRLPRPRPRPRTWPRP	-0.182
RRIRQRPPRLPRPRPRPRVPPRP	0.339
RRIRQRPPRLPRPRPRPRWGPRP	0.447
RRIRQRPPRLPRPRPRPSAHPRP	-0.075
RRIRQRPPRLPRPRPRPSANPRP	0.0611
RRIRQRPPRLPRPRPRPSATPRP	0.0854
RRIRQRPPRLPRPRPRPSDKPRP	-0.341
RRIRQRPPRLPRPRPRPSDSPRP	-0.0885
RRIRQRPPRLPRPRPRPSFIPRP	-0.807
RRIRQRPPRLPRPRPRPSHLPRP	0.049
RRIRQRPPRLPRPRPRPSHQPRP	-0.0977
RRIRQRPPRLPRPRPRPSHSPRP	-0.102
RRIRQRPPRLPRPRPRPSHTPRP	-0.195
RRIRQRPPRLPRPRPRPSIDPRP	-0.607
RRIRQRPPRLPRPRPRPSKEPRP	-0.371
RRIRQRPPRLPRPRPRPSKGPRP	0.0585
RRIRQRPPRLPRPRPRPSKYPRP	-0.0779
RRIRQRPPRLPRPRPRPSLFPRP	-0.11
RRIRQRPPRLPRPRPRPSLVPRP	-0.0806
RRIRQRPPRLPRPRPRPSMVPRP	-0.632
RRIRQRPPRLPRPRPRPSNNPRP	-0.729
RRIRQRPPRLPRPRPRPSNRPRP	-0.158

Sequence	shrunken log2 fold change
RRIRQRPPRLPRPRPRPSQGPRP	4.77e-05
RRIRQRPPRLPRPRPRPSRIPRP	-0.305
RRIRQRPPRLPRPRPRPSSDPRP	-0.609
RRIRQRPPRLPRPRPRPSSTPRP	-0.215
RRIRQRPPRLPRPRPRPSVSPRP	-0.000735
RRIRQRPPRLPRPRPRPSWCPRP	-0.141
RRIRQRPPRLPRPRPRPSWDPRP	-0.16
RRIRQRPPRLPRPRPRPSWMPRP	-0.0569
RRIRQRPPRLPRPRPRPSWWPRP	-0.176
RRIRQRPPRLPRPRPRPSYNPRP	-0.723
RRIRQRPPRLPRPRPRPTCSPRP	-0.353
RRIRQRPPRLPRPRPRPTDNPRP	-0.335
RRIRQRPPRLPRPRPRPTEKPRP	-0.047
RRIRQRPPRLPRPRPRPTEQPRP	0.0331
RRIRQRPPRLPRPRPRPTFKPRP	-0.225
RRIRQRPPRLPRPRPRPTGPPRP	0.22
RRIRQRPPRLPRPRPRPTGVPRP	0.216
RRIRQRPPRLPRPRPRPTHFPRP	-0.0245
RRIRQRPPRLPRPRPRPTHIPRP	-0.387
RRIRQRPPRLPRPRPRPTKDPRP	-0.198
RRIRQRPPRLPRPRPRPTKGPRP	-0.0785
RRIRQRPPRLPRPRPRPTLGPRP	0.269
RRIRQRPPRLPRPRPRPTNGPRP	-0.0973
RRIRQRPPRLPRPRPRPTNKPRP	-0.579
RRIRQRPPRLPRPRPRPTPHPRP	0.397

Sequence	shrunken log2 fold change
RRIRQRPPRLPRPRPRPTPNPRP	0.333
RRIRQRPPRLPRPRPRPTPQPRP	0.89
RRIRQRPPRLPRPRPRPTRHPRP	0.434
RRIRQRPPRLPRPRPRPTSAPRP	0.257
RRIRQRPPRLPRPRPRPTSLPRP	-0.0738
RRIRQRPPRLPRPRPRPTSNPRP	-0.64
RRIRQRPPRLPRPRPRPTVFPRP	-0.0987
RRIRQRPPRLPRPRPRPTVRPRP	0.0397
RRIRQRPPRLPRPRPRPTWDPRP	0.0355
RRIRQRPPRLPRPRPRPTWYPRP	-0.174
RRIRQRPPRLPRPRPRPTYIPRP	-0.0622
RRIRQRPPRLPRPRPRPVAAPRP	0.51
RRIRQRPPRLPRPRPRPVACPRP	-0.0393
RRIRQRPPRLPRPRPRPVAEPRP	0.478
RRIRQRPPRLPRPRPRPVAFPRP	-0.0706
RRIRQRPPRLPRPRPRPVAGPRP	0.0467
RRIRQRPPRLPRPRPRPVAIPRP	-0.367
RRIRQRPPRLPRPRPRPVCMPRP	-0.0787
RRIRQRPPRLPRPRPRPVCWPRP	0.279
RRIRQRPPRLPRPRPRPVHKPRP	0.0383
RRIRQRPPRLPRPRPRPVKDPRP	-0.03
RRIRQRPPRLPRPRPRPVLNPRP	2.89
RRIRQRPPRLPRPRPRPVMAPRP	-0.38
RRIRQRPPRLPRPRPRPVNHPRP	-0.212
RRIRQRPPRLPRPRPRPVNNPRP	-0.0612

Sequence	shrunken log2 fold change
RRIRQRPPRLPRPRPRPVPDPRP	0.106
RRIRQRPPRLPRPRPRPVPLPRP	0.0148
RRIRQRPPRLPRPRPRPVQEPRP	0.00554
RRIRQRPPRLPRPRPRPVRAPRP	0.38
RRIRQRPPRLPRPRPRPVSNPRP	-0.0478
RRIRQRPPRLPRPRPRPVWNPRP	-0.344
RRIRQRPPRLPRPRPRPVWQPRP	0.232
RRIRQRPPRLPRPRPRPVYMPRP	-0.269
RRIRQRPPRLPRPRPRPVYNPRP	-0.0538
RRIRQRPPRLPRPRPRPWADPRP	0.00911
RRIRQRPPRLPRPRPRPWCNPRP	-0.00865
RRIRQRPPRLPRPRPRPWCRPRP	-0.325
RRIRQRPPRLPRPRPRPWENPRP	0.0728
RRIRQRPPRLPRPRPRPWEPPRP	0.106
RRIRQRPPRLPRPRPRPWFGPRP	-0.352
RRIRQRPPRLPRPRPRPWGQPRP	0.000222
RRIRQRPPRLPRPRPRPWHIPRP	-0.00133
RRIRQRPPRLPRPRPRPWKWPRP	-0.299
RRIRQRPPRLPRPRPRPWLWPRP	0.145
RRIRQRPPRLPRPRPRPWNFPRP	-0.15
RRIRQRPPRLPRPRPRPWNGPRP	-0.0018
RRIRQRPPRLPRPRPRPWRSPRP	0.0241
RRIRQRPPRLPRPRPRPWSCPRP	-0.462
RRIRQRPPRLPRPRPRPWSDPRP	-0.276
RRIRQRPPRLPRPRPRPWTIPRP	-0.142

Sequence	shrunken log2 fold change
RRIRQRPPRLPRPRPRPWTQPRP	0.0496
RRIRQRPPRLPRPRPRPWTWPRP	-0.0328
RRIRQRPPRLPRPRPRPWVCPRP	-0.208
RRIRQRPPRLPRPRPRPWWVPRP	-0.0321
RRIRQRPPRLPRPRPRPYCFPRP	-1
RRIRQRPPRLPRPRPRPYDNPRP	-0.0495
RRIRQRPPRLPRPRPRPYDYPRP	-0.133
RRIRQRPPRLPRPRPRPYFLPRP	-0.923
RRIRQRPPRLPRPRPRPYGAPRP	-0.0876
RRIRQRPPRLPRPRPRPYHCPRP	-0.0107
RRIRQRPPRLPRPRPRPYIRPRP	-0.197
RRIRQRPPRLPRPRPRPYKPPRP	0.0291
RRIRQRPPRLPRPRPRPYLCPRP	-0.00822
RRIRQRPPRLPRPRPRPYMRPRP	-0.0086
RRIRQRPPRLPRPRPRPYPTPRP	0.0734
RRIRQRPPRLPRPRPRPYRYPRP	-0.0123
RRIRQRPPRLPRPRPRPYTCPRP	0.0526
RRIRQRPPRLPRPRPRPYWSPRP	-0.117
RRIRQRPPRLPRPRPRPYWWPRP	-0.143
RRIRQRPPRLPRPRPRPYYKPRP	-0.962
RRIRRRPPRLPRPRPRPAALPRP	0.55
RRIRRRPPRLPRPRPRPAANPRP	3
RRIRRRPPRLPRPRPRPACRPRP	0.456
RRIRRRPPRLPRPRPRPACYPRP	0.488
RRIRRRPPRLPRPRPRPADDPRP	0.213

Sequence	shrunken log2 fold change
RRIRRRPPRLPRPRPRPAEGPRP	-0.0943
RRIRRRPPRLPRPRPRPAEHPRP	0.313
RRIRRRPPRLPRPRPRPAFMPRP	0.169
RRIRRRPPRLPRPRPRPAGEPRP	0.75
RRIRRRPPRLPRPRPRPAGGPRP	0.327
RRIRRRPPRLPRPRPRPAGPPRP	0.446
RRIRRRPPRLPRPRPRPAGQPRP	1.41
RRIRRRPPRLPRPRPRPAKFPRP	0.217
RRIRRRPPRLPRPRPRPALDPRP	0.586
RRIRRRPPRLPRPRPRPAMWPRP	0.451
RRIRRRPPRLPRPRPRPAPEPRP	2.07
RRIRRRPPRLPRPRPRPAPQPRP	1.39
RRIRRRPPRLPRPRPRPAQMPRP	0.161
RRIRRRPPRLPRPRPRPARKPRP	0.58
RRIRRRPPRLPRPRPRPARMPRP	0.173
RRIRRRPPRLPRPRPRPATEPRP	0.421
RRIRRRPPRLPRPRPRPATIPRP	-0.0623
RRIRRRPPRLPRPRPRPATNPRP	0.189
RRIRRRPPRLPRPRPRPAYFPRP	0.401
RRIRRRPPRLPRPRPRPAYLPRP	-0.35
RRIRRRPPRLPRPRPRPAYPPRP	0.0273
RRIRRRPPRLPRPRPRPCCEPRP	0.122
RRIRRRPPRLPRPRPRPCDLPRP	0.0275
RRIRRRPPRLPRPRPRPCDPPRP	0.0316
RRIRRRPPRLPRPRPRPCDRPRP	0.0985
